For 2 molecules, Kd and Ki results are on record in PMC4782999, “The Inhibitory Effect of Non-Substrate and Substrate DNA on the Ligation and Self-Adenylylation Reactions Catalyzed by T4 DNA Ligase”.

Common to all, as to settings: protein: commercial; blunt, no nick
The target of data set [1] is T1, T4 DNA ligase (UniProt P00970 1-487).
T1 sequence: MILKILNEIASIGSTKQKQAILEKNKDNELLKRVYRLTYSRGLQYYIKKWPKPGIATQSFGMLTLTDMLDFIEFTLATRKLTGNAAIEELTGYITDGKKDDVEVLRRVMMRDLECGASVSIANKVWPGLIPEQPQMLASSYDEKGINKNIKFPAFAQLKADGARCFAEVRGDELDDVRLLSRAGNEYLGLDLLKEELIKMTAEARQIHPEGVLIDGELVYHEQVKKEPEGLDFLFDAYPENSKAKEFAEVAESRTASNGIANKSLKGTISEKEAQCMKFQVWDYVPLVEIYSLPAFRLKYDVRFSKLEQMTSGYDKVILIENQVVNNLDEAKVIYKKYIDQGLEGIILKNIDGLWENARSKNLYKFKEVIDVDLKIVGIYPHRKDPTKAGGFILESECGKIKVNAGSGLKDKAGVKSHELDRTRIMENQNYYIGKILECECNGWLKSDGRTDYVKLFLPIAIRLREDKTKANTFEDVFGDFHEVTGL
The data set can be described thus: competition (nick-ligation inhibition); Ki x N sites; per binding site, N=34, assumed 24 bp footprint; derived from the Ki; EMSA: 50 mM Tris pH 7.5, 5 mM DTT, 5 mM Mg2+, 1 mM sodium pyrophosphate, 5% glycerol, room temperature (22 C), 20 min; ligation competition: 50 mM Tris-HCl pH 7.5, 1 mM ATP, 10 mM MgCl2, 10 mM DTT, 16 C. For orientation: In EMSA bound probe runs differently from free probe, usually more slowly.

Data set [2] concerns the target T1, T4 DNA ligase. In words: competition (nick-ligation inhibition, competitive fit); 1 mM ATP, 10 mM Mg2+; EMSA: 50 mM Tris pH 7.5, 5 mM DTT, 5 mM Mg2+, 1 mM sodium pyrophosphate, 5% glycerol, room temperature (22 C), 20 min; ligation competition: 50 mM Tris-HCl pH 7.5, 1 mM ATP, 10 mM MgCl2, 10 mM DTT, 16 C.
Data set [3] addresses T1, T4 DNA ligase. In words: competition (nick-ligation inhibition); Ki x N sites; per binding site, N~100, assumed 24 bp footprint; derived from the Ki; EMSA: 50 mM Tris pH 7.5, 5 mM DTT, 5 mM Mg2+, 1 mM sodium pyrophosphate, 5% glycerol, room temperature (22 C), 20 min; ligation competition: 50 mM Tris-HCl pH 7.5, 1 mM ATP, 10 mM MgCl2, 10 mM DTT, 16 C.
For data set [4], the target named is T1, T4 DNA ligase. In words: competition (nick-ligation inhibition, competitive fit); 20 nM FAM-labeled nicked substrate, 25 pM ligase, 1 mM ATP, 10 mM Mg2+, 16 C; EMSA: 50 mM Tris pH 7.5, 5 mM DTT, 5 mM Mg2+, 1 mM sodium pyrophosphate, 5% glycerol, room temperature (22 C), 20 min; ligation competition: 50 mM Tris-HCl pH 7.5, 1 mM ATP, 10 mM MgCl2, 10 mM DTT, 16 C.

One may read the Kd as the constant that tells how readily two partners part at equilibrium. A lower Kd goes with a tighter complex. A word on the Ki: it is the dissociation constant of the complex between target and ligand, obtained from inhibition or displacement. A high value points to a looser hold on the target.

B1: I-40-dsDNA (dsDNA)
DNA 1: CACATATGAGAAGGTATTTGCCCGATAATCAATACTCCAG
DNA 2: CTGGAGTATTGATTATCGGGCAAATACCTTCTCATATGTG
On to B1, for which, in the data set with T4 DNA ligase [1], the dissociation constant (Kd) amounted to 7 ± 1 µM. This molecule returned a Ki with T4 DNA ligase [2] of 0.2 ± 0.03 µM.

B2: I-75-dsDNA (dsDNA)
DNA 1: AGAGAAGATGACTACTGAGTTGTGCGATCCCTGCACTTCAGCTAAGGAAGCTACCAATATTTAGTTTCCGAGTCT
DNA 2: AGACTCGGAAACTAAATATTGGTAGCTTCCTTAGCTGAAGTGCAGGGATCGCACAACTCAGTAGTCATCTTCTCT
Turning to B2, binding with T4 DNA ligase [3] was put at a Kd of 10 ± 2 µM. Also, the affinity with T4 DNA ligase [4], expressed as Ki, was 0.1 ± 0.02 µM.
